Test: Biodistribution of radiometal-DOTA-BBN conjugates in CF1 normal mice
Conditions: 1 hour post-injection; for tissue uptake at 1 h: Avg % ID/gm

| SMILES | Avg % ID, Carcass [% ID] | Avg % ID, Heart [% ID] | Avg % ID, Liver [% ID] | Avg % ID, Lung [% ID] | Avg % ID, Muscle [% ID] | Avg % ID, S. Intestine [% ID] | Avg % ID, Spleen [% ID] | Avg % ID, Stomach [% ID] | Avg % ID/gm, Heart [% ID/gm] | Avg % ID/gm, Liver [% ID/gm] | Avg % ID/gm, Muscle [% ID/gm] | Avg % ID/gm, S. Intestine [% ID/gm] | Avg % ID/gm, Spleen [% ID/gm] | Avg % ID/gm, Stomach [% ID/gm] | further results |
| --- | --- | --- | --- | --- | --- | --- | --- | --- | --- | --- | --- | --- | --- | --- | --- |
| CSCC[C@H](NC(=O)[C@H](CC(C)C)NC(=O)[C@H](Cc1c[nH]cn1)NC(=O)CNC(=O)[C@@H](NC(=O)[C@H](C)NC(=O)[C@H](Cc1c[nH]c2ccccc12)NC(=O)[C@H](CCC(N)=O)NC(=O)CCCCCCCCCCNC(=O)CN1CCN(CC(=O)O)CCN(CC(=O)O)CCN(CC(=O)O)CC1)C(C)C)C(N)=O [111In-DOTA-11-Aun-BBN[7-14]NH2, metal not drawn] |  |  |  |  |  |  |  |  |  |  |  |  |  |  | tissue uptake dose at 1 h (CF-1, mouse, in vivo, iv, total radioactivity, Avg % ID, Blood): 0.79 ± 0.2 %ID; tissue uptake dose at 1 h (CF-1, mouse, in vivo, iv, total radioactivity, Avg % ID, Carcass): 7.35 ± 1.57 %ID; tissue uptake dose at 1 h (CF-1, mouse, in vivo, iv, total radioactivity, Avg % ID, Kidney): 1.07 ± 0.17 %ID; tissue uptake dose at 1 h (CF-1, mouse, in vivo, iv, total radioactivity, Avg % ID, L. Intestine): 5.54 ± 2.42 %ID; tissue uptake dose at 1 h (CF-1, mouse, in vivo, iv, total radioactivity, Avg % ID, Liver): 2.44 ± 0.5 %ID; tissue uptake dose at 1 h (CF-1, mouse, in vivo, iv, total radioactivity, Avg % ID, Pancreas): 11.6 ± 1.14 %ID; tissue uptake dose at 1 h (CF-1, mouse, in vivo, iv, total radioactivity, Avg % ID, S. Intestine): 17.8 ± 1.4 %ID; tissue uptake dose at 1 h (CF-1, mouse, in vivo, iv, total radioactivity, Avg % ID, Spleen): 0.19 ± 0.04 %ID; tissue uptake dose at 1 h (CF-1, mouse, in vivo, iv, total radioactivity, Avg % ID, Stomach): 0.53 ± 0.11 %ID; dose excreted at 1 h (CF-1, mouse, in vivo, iv, total radioactivity, Avg % ID, Urine): 53.3 ± 0.9%; tissue uptake at 1 h (CF-1, mouse, in vivo, iv, total radioactivity, L. Intestine): 4.34 ± 1.34 %ID/g; tissue uptake at 1 h (CF-1, mouse, in vivo, iv, total radioactivity, Liver): 1.22 ± 0.25 %ID/g; tissue uptake at 1 h (CF-1, mouse, in vivo, iv, total radioactivity, Pancreas): 26 ± 3.46 %ID/g; tissue uptake at 1 h (CF-1, mouse, in vivo, iv, total radioactivity, S. Intestine): 11.1 ± 2.07 %ID/g; tissue uptake at 1 h (CF-1, mouse, in vivo, iv, total radioactivity, Spleen): 1.15 ± 0.38 %ID/g; tissue uptake at 1 h (CF-1, mouse, in vivo, iv, total radioactivity, Stomach): 1.05 ± 0.25 %ID/g |
| CSCC[C@H](NC(=O)[C@H](CC(C)C)NC(=O)[C@H](Cc1c[nH]cn1)NC(=O)CNC(=O)[C@@H](NC(=O)[C@H](C)NC(=O)[C@H](Cc1c[nH]c2ccccc12)NC(=O)[C@H](CCC(N)=O)NC(=O)CCCCNC(=O)CN1CCN(CC(=O)O)CCN(CC(=O)O)CCN(CC(=O)O)CC1)C(C)C)C(N)=O [111In-DOTA-5-Ava-BBN[7-14]NH2] [metal not drawn] | 3.15 ± 0.70 | 0.02 ± 0.01 | 0.26 ± 0.03 | 0.04 ± 0.01 | 0.01 ± 0.01 | 0.11 ± 0.04 | 0.11 ± 0.04 | 0.37 ± 0.16 | 0.10 ± 0.04 | 0.16 ± 0.02 | 0.05 ± 0.02 | 3.49 ± 0.87 | 0.87 ± 0.28 | 0.71 ± 0.24 |  |
| CSCC[C@H](NC(=O)[C@H](CC(C)C)NC(=O)[C@H](Cc1c[nH]cn1)NC(=O)CNC(=O)[C@@H](NC(=O)[C@H](C)NC(=O)[C@H](Cc1c[nH]c2ccccc12)NC(=O)[C@H](CCC(N)=O)NC(=O)CCCCNC(=O)CN1CCN(CC(=O)O)CCN(CC(=O)O)CCN(CC(=O)O)CC1)C(C)C)C(N)=O [149Pm-DOTA-5-Ava-BBN[7-14]NH2] | 6.16 ± 0.75 | 0.06 ± 0.09 | 0.37 ± 0.20 | 0.17 ± 0.21 | 0.03 ± 0.04 | 7.70 ± 0.66 | 0.27 ± 0.13 | 0.77 ± 0.74 | 0.42 ± 0.59 | 0.23 ± 0.13 | 0.24 ± 0.25 | 5.15 ± 1.20 | 2.37 ± 1.36 | 1.90 ± 1.60 | Avg % ID, Blood: 0.47 ± 0.11 % ID; Avg % ID, Kidney: 1.11 ± 0.29 % ID; Avg % ID, L. Intestine: 3.18 ± 1.18 % ID; Avg % ID, Pancreas: 4.25 ± 0.43 % ID; Avg % ID/gm, Blood: 0.27 ± 0.06 % ID/gm; Avg % ID/gm, Kidney: 2.81 ± 0.66 % ID/gm; Avg % ID/gm, L. Intestine: 3.53 ± 1.10 % ID/gm; Avg % ID/gm, Lung: 0.78 ± 1.08 % ID/gm; Avg % ID/gm, Pancreas: 22.1 ± 5.40 % ID/gm |
